B1: clonotype3 (10x_4) (antibody, V domains shown)
VH: EVQLVQSGAEVKKPGESLKISCKVSGYSFTTYWIAWVRQMPGKGLEWMGIIYPGDSDTRYSPSFQGQVTISADKSVTTAYLQWGSVKASDTAMYYCARPPHFIDAGGRQTPGYFDLWGQGTLVTVSS
VL: DIVMTQSPDSLAVSLGERATINCKSSQTVLFRSNNKNYLAWYQQKPGQPPKLLIYWASTRQSGVPDRFSGSGSGTDFTLTISSLQAEDVALYFCQQYHDSPYTFGQGTKVEIK
B2: clonotype286 (10x_4) (antibody, V domains shown)
VH: EVQLVQSGPEVKEPGESLKISCKASGYNFAKYWIAWVRQMPGKGLEWMGIVYPGDSDTRYSPSFQGQVTISADKSLTTAYLQWSSLKASDTAIYYCARGVQDCDSRNCYAYNWFDPWGQGTLVTVSS
VL: DIVMTQSPESLAVSLGERATINCKSSHSVFFSSNNKNYLSWYQQKPGQPPKLLIYWASTRQSGVPDRFSGGGSGTDFTLTISSLQAEDVAVYYCQQYYYSPYTFGQGTKLEIK
B3: clonotype473 (10x_4) (antibody, V domains shown)
VH: EVQLVQSGAEVKKPGESLRISCKGSGYTFSTHWIGWVRHMPGKGLEWVGVIYPDDSDTRLSPSFQGQVTISADKSTTTAFLWWSSLKASDTATYYCARGVQSCIRNTCSFYGWFDRWGQGTRVTVSS
VL: DIVMTQSPDSLAVSLGERATIYCKSSHSLLYSSNNYNYLAWYQQKPGQPPKLLIYWASTRESGVPDRFSGSGSGTDFTLTISSLQAADVAVYYCQQYFYSPYTFGQGTKVEIR
B4: clonotype2760 (Quake) (antibody, V domains shown)
VH: EVQLVQSEIEVRKPGESLKISCKGSGYNFATHWIGWVRQMPGKGLEWMGTIYPLDSDTRYSPYFQGQVTISADKSINTAYLQWNSLKASDTAMYYCARVPEGSVVAGEVHFYYYMDVWGKGTAVTVSS
VL: DIVMTQSPDSLAVSLGERATINCKSSQSLLYSSNNRNYLAWYQHKPGQPPKLLMYWASTRESGVPDRFSGGGSETDFTLTISSLQAEDVAMYYCQQYYFTPYTFGQGTKLEIK
B5: clonotype4582 (Quake) (antibody, V domains shown)
VH: EVQLVQSGAEVKKPGESLKISCKASGYTFTNYWIAWVRQMPGKGLEWMGIIFPSDSDTRYSPSFQGQVTISADKSVSTAYLQWSSLKASDTAMYYCARGAATILRGVVTSYNWFDSWGQGTLVTVSS
VL: DVVMTQSPDSLAASLGERATINCTSSHNILYNSNNNNYLAWYQQKPGQPPKLLIYWASTRESGVPDRFSGSGSGTDFTLTISSLQAEDVAVYSCQQYFSTPYTFGQGTKLEIK
B6: flu_c326 (antibody, V domains shown)
VH: EVQLVQSGAEVKKPGESLKISCRTSGFTFTRHWIAWVRQMPGKGLEWMGIIYPGDSDVTYNPSFQGQVTISADKSITTAYLQWSSLQASDTAIYFCAKPYNYCNTTTCYTRGYFDFWGRGTLVTVSS
VL: DIVMTQSPDSLAVSLGERATINCKSSQSLLYRSDNKNYLAWYQQNPGQPPKLLIYWASIRESGVSDRFSGSGSGTDFTLTINSLQAEDVAVYYCQQYYFTPYTFGQGTKLEIK
notes: recombinant human IgG
B7: flu_c357 (antibody, V domains shown)
VH: EVQLVQSGAEVKKPGESLKISCKTSGFKFTSHWIAWVRQMPGKGLEWMGIIYPGDSDTRYNPSFEGQVTVSADKSINTAYLQWSSLKASDTAMYYCARLPHRESGNVSTTWGWFDPWGQGTLVTISS
VL: DIVLTQSPDSLAVSLGERATINCKSSHNVLYISNSKNYLAWYQQKPGQPPKLLIYWASTRESGVPDRFSGSGSGTDFTLTISSLQPEDVAVYYCQQYFSTPYTFGQGTRLEIK
notes: recombinant human IgG

Target: T1, influenza A minimal peptide VPNGTLVKTITNDQI (spotted for dot blot) (Influenza A virus (H3 hemagglutinin …))
T1 chain: VPNGTLVKTITNDQI
Assay: not given
Conditions: not given

Question: Does B1 bind?
Answer: binds

Question: Does B2 bind?
Answer: binds

Question: Does B3 bind?
Answer: binds

Question: Does B4 bind?
Answer: binds

Question: Does B5 bind?
Answer: binds

Each binder was assayed against T2, influenza A H3 hemagglutinin ectodomain trimer, A/Aichi/02/1968 (Influenza A virus A/Aichi/2/1968 (H3N2, …, UniProt P03437)) (assay: ELISA). Conditions: both partners purified.
T2 construct: source: Expi293, transient transfection, purified (Ni-NTA, SEC)

Question: Does B6 bind?
Answer: binds

Question: Does B7 bind?
Answer: binds

Reference: publication PMC10273302 (Science (New York, N.Y.), 2023)
